From patent US20180274003 come the findings set out here.

In series [1] the target is T1, Peptide 1 YKN-thioglc-V (thiodepsipeptide 1).
T1 chain: YKNXV

Series [2] addresses T2, Peptide 2 YKN-glc-V (depsipeptide 2).
T2 chain: YKNXV

In another series the target is T3, Peptide 3 YKNHV.
T3 chain: YKNHV

In another series the target is T4, Peptide 4 YKNGV.
T4 chain: YKNGV

B1: butelase 1 (protein)
chain: VEGTRWAVLVAGSKGYVNYRHQADVCHAYQILKKGGLKDENIIVFMYDDIAYNESNPHPGVIINHPYGSDVYKGVPKDYVGEDINPPNFYAVLLANKSALTGTGSGKVLDSGPNDHVFIYYTDHGGAGVLGMPSKPYIAASDLNDVLKKKHASGTYKSIVFYVESCESGSMFDGLLPEDHNIYVMGASDTGESSWVTYCPLQHPSPPPEYDVCVGDLFSVAWLEDCDVHNLQTETFQQQYEVVKNKTIVALIEDGTHVVQYGDVGLSKQTLFVYMGTDPANDNNTFTDKNSLGTPRKAVSQRDADLIHYWEKYRRAPEGSSRKAEAKKQLREVMAHRMHIDN
As for B1, the Km in series [1] worked out at 2760 µM; in series [2] it was 740 µM; with Peptide 3 YKNHV it was 300 µM; with Peptide 4 YKNGV, 880 µM. In addition, the kcat in series [1] worked out at 56.5 s⁻¹; in series [2], 12.4 s⁻¹; with Peptide 3 YKNHV it was 4.1 s⁻¹; with Peptide 4 YKNGV, 7.9 s⁻¹. The kcat/Km came out at 20500 M⁻¹ s⁻¹ in series [1], 16800 M⁻¹ s⁻¹ in series [2], 13500 M⁻¹ s⁻¹ in the series with Peptide 3 YKNHV and 8900 M⁻¹ s⁻¹ with Peptide 4 YKNGV.
